Experimental data published in the supplement of paper PMC12764529.
± gives the half width of the 95% confidence interval.

Assay: folding stability dG unfold from trypsin proteolysis; higher = more stable
Summary of the method: (§1)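 Mini-proteins designed to be under 80 residues and free of cysteine were carried in a PA-tagged cDNA display construct and digested with trypsin and with chymotrypsin. Each protease was applied at 11 threefold-diluted concentrations, alongside a no-protease condition, before sequencing. K50 came from Bayesian fitting of the sequencing counts, and unfolding free energy was obtained by comparing it with a sequence-predicted unfolded-state K50 and a shared folded-state K50, for each protease separately or for both together. Designs were retained only if their AlphaFold2 dimer inter-PAE exceeded 15.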

Row | Sequence | folding stability dG unfold [kcal/mol]
1 | SAGGKEFIEKLGNNATIEIDTPNGGKVKINLKIEKVKPGKYVIKGEVTVYNPNTNKPVKFPYTLTIESAGGS [r8_473_TrMRF] | 2.39 ± 0.2
2 | SAGGSAGGSAGGSKKIVIRVKDKDGNEREIVLEVPEEELTEEEIAELAKKFPNAEIEVLSAGGSAGGSAGGS [r4_422_TrROS_Hall] | 2.48 ± 0.13
3 | SAGNIQIEPTDGKWRIRITYWMPDPDEITPDTFKNLLRNLGLPIKDIDIEPEPNPNGQRYVTAEIWIPVSAG [r5_922_TrROS] | 2.84 ± 0.043
4 | SAGKVYRIKATAPDGSTAIIEIPENGNAKIKIFYPNGVKEITINLDPNVKIEEILEKFPNFIISSIEEESAG [r5_259_TrMRF] | 5.01 ± 0.8
5 | SAGGSAMERVTITLPDGRELTIERFPEEPNRFVLTFPDGRRLEFEFESPEEGLRAALELVLAGKEGSAGGSA [r15_38_TrMRF] | 3.34 ± 0.075
6 | SAGGVITAVESTTTPLPNGTVLVTLTLKEGGETLQVTVTVSPDGVTVTTPSGKTSTIAPEELASLLPSAGGS [r16_593_JUSTAS] | 1.31 ± 0.025
7 | SAGGSAGGEEEETVTLTLEVEVEAEVKVEKNADGEETEVEVKVKRVRVRLTLTLTKEELEKLLKSAGGSAGG [r6_119_TrROS_Hall] | 2.59 ± 0.14
8 | SDREFEAVFLVETPEEVEALARELALPGVEVEVHVLPAPYLDPETGEPRPFLLAVVRVRVPVPPPGPGALSA [r9_962_TrMRF] | 0.969 ± 0.044
9 | SAGGGTATVTTAEAELPGDVRVTTATVTLPDGSAVRVVTLSSSVPNATATVVVPLPANGPGEGVIVLPSAGG [r13_323_TrMRF] | 1.44 ± 0.073
10 | SAGGSAGGSWMLMVKIEFPENGQERHFMLPPGMTIEDIADRLREDGAPIKDIEVQWMPLPPGDSAGGSAGGS [r12_955_TrROS] | 1.47 ± 0.033
11 | SAGGSAGGSAGGMTLTIPEEVLKKALEEGDEELLKEVVEKAGVKPEDTEVIAVTPEDLLESAGGSAGGSAGG [r7_7_JUSTAS] | 0.56 ± 0.072
12 | SAGGSMTLRLPVPEDVEVVEVTAEVPDPETGKVYVFRSRARVVPYKDGVYLTVDLDPDGRSYGFDPSAGGSA [r2_123_TrMRF] | 1.07 ± 0.096
13 | SDPNGKPKKRRFYVMITVPHKMKPERDPDGKMEMEHKMPTVMFPFPADDLDDLRDILEPFGISVSLMPLDSA [r9_1209_TrROS] | 1.6 ± 0.057
14 | SKTIMIPANMPIDFIRKIARNAAKNGPPVKITIMIPDNPKIKEWLEEAGFPVEIERNKENNMQMITIEVPSA [r9_759_TrROS] | 1.8 ± 0.029
15 | SAGSKVIMIPWEDAEKLIEDLPPGKNVTIHWMWPKGPYWTHTIEVKGDKIKIEPLPPNQFPGWRIMITKSAG [r5_85_TrROS] | 1.86 ± 0.13
16 | SKKIVINLENIPEENREKVLENVLKAIKEAKEKNPEKKVKITILVSPEQKEEVKKLKEELEKAGLEVEEISA [r9_1202_TrROS_Hall] | 3.81 ± 0.31
17 | SAGGSQKLPPGETIPIRIPGFQIEISPDKTTIHVMWPDPDEAKDFLKNLPFPIKIDKVEVMPPEDFSAGGSA [r2_418_TrROS] | 0.515 ± 0.066
18 | KKVKIEIEVIHPGPDGWVIRAKVKYPGNNKKKEKPFFFPNPKEFVKEIANELLPKNQLDDVDIEMYPLEEFS [r1_399_TrROS] | 0.973 ± 0.058
19 | SAGGSAPPPPETVRIRVRITLPDGRTLEIEIEVSREEAERLAKELADRLRELGYEVKVEIVEVEEVSAGGSA [r2_274_TrROS_Hall] | 4.34 ± 0.31
20 | SAGGSAGGSAKKTLTVTVKAEPSEGAPAIAKEVAEKLGLPDAKVLSISYDPETGELTITFEYSAGGSAGGSA [r18_481_TrMRF] | 4.21 ± 0.2
21 | SAGGNKEHKVTLEIYIMMWPDPDNGQPYPMPLEIEAPYKNNDPEAAEADIKELLKEIPIPPWMKDMISAGGS [r16_40_TrROS] | 1.19 ± 0.12

Row | Sequence | folding stability dG unfold [kcal/mol]
22 | SAGLSPQVRDWLRDLFQEEGFKVKEIDVQPHPNGQMYIKINYPNGKPIKEIPVPPGMDTPEQALKMIRKSAG [r5_352_TrROS] | -0.00734 ± 0.11
23 | SAGGKTTVLIITENPDGTPKAIPIPLDELDIEEIVELIKELVEEGRKLKVFVPADTPPELIKAIKEAASAGG [r13_251_TrMRF] | 3.4 ± 0.087
24 | SAGGSAGGSAGMVLPVTKVYRDGDTVYLYFDGLGLIAEIRIDDDKITLPSVYRVHPDEDLSAGGSAGGSAGG [r17_30_TrMRF] | 0.835 ± 0.038
25 | SAGGDPPDIYVQIEHKNGKTRTIPFDNMSIENIAEELRDHNYDEVKISVFRMGKPIETFKIKIPPGDSAGGS [r16_700_TrROS] | 3.7 ± 0.27
26 | SAGTVKVSEDGDKLTVTMTAPPESPALVEALIQALKDAGLTIVTAEITTEPGEGDLVRTTITLTLKPPASAG [r5_739_JUSTAS] | 2.33 ± 0.082
27 | SAGGSAGGSAGGFIARIEYPDGNTRTINPGMSLDELRNLPPDQIRRVEVEPVPPVPDDEKSAGGSAGGSAGG [r7_190_TrROS] | -0.225 ± 0.12
28 | SAGGKQEIEIPIPYKNGMPFRIRIEWEEDPNKPRLRIPIWAPNMPASNFAEEIKKELPPDIKDVEIWPSAGG [r13_404_TrROS] | 0.685 ± 0.2
29 | SAGGSAGGSAGGSGKLYYIVVELPNGEKISLLVESPEGAIELLEKLNYPVVKAEFFPISSAGGSAGGSAGGS [r4_213_TrMRF] | 2.29 ± 0.091
30 | SAGGFNRKVTVRVKVPATGEEFEFEFDFEGLTLEEIKRKIKEEIKKKGIVLKPDNPVVIEITDLEEDPASAG [r5_230_JUSTAS] | 4.13 ± 0.34
31 | SAGGSMELYTKSPDGKLFKVKIVNPGNAKDKVLFEAEVFDPKNNKPIGRFTGVVDPKTGKIISIKPSAGGSA [r2_324_TrMRF] | 1.6 ± 0.035
32 | SSPSSVPDAVVQALKEAHPDVVSIEVTPLPPESTRISVTLKSGSGSSTVSFSIPSPEGVTRTYTVSVSNPSA [r9_678_JUSTAS] | 0.839 ± 0.063
33 | SAGGSAGGSAGGKYKIKEIKVEEVDGKKYVKLVIYDKNGKPVKTIVMSLEELKKLPPELLSAGGSAGGSAGG [r7_263_TrROS_Hall] | 1.55 ± 0.041
34 | SAGGSAEKPVKIHLMYNPDYYYVRIRNNGGPQSFMFKPDMDIEEIANNFPPGIDEIEIHPMPPEAFSAGGSA [r15_1058_TrROS] | 0.251 ± 0.14
35 | SAGGNDDNWRVIEFTFSPGNIKPEQIRSLLENAGADRITDVEVQRTPNSYTVTFYFPNGKPVEITIPSAGGS [r8_86_TrROS] | 1.65 ± 0.038
36 | SAGGSAGGSAGGSKYIVIRIPGSVDELIDYLRDSGFKIKIESVEYDPPNGEFYVVFKIKSAGGSAGGSAGGS [r4_315_TrROS] | 2.53 ± 0.073
37 | SDIENMPPEQFVHYIREALDEERENNPGEPVRIPIKDLGDKFPGFPPSMLKDMLGLTEDDLNNGPITIRPSA [r9_525_TrROS] | -0.193 ± 0.079
38 | SMIQVDIKPDAINVTVTKEGKSVTVPMDLEELEELLKKGVEKVEIKSPDPEVLEKIKELVEKAGVPIELKSA [r9_810_JUSTAS] | 1.09 ± 0.1
39 | SAGMLGEEAIKDVKLELKEAPENEELVFEDTFPVGDKIARIRIVLKLPKNGGYEIKDIPIEVMAPEEAESAG [r5_96_TrMRF] | -0.469 ± 0.27
40 | SAGGSAKGPKTVTYEFKIKYGDKYYLIKVTVKLHEVKYDPKTKKYTLNLKPNDKLEIKVEIYELDDSAGGSA [r15_1040_TrMRF] | 2.29 ± 0.26
41 | SAGGSAGGDYMMIKITNGSIKLMDGDDGKPIANLPPNQEITIMIPIKPPPPPEERKYDPNGKPKSAGGSAGG [r6_40_TrROS] | 0.515 ± 0.2
42 | SLSKSTPVSSLEEALKIAKEAAEEFEKELGKPYPVLVEVEFEPLEDGSVLVRFKLYRPEEGKYLREIEVGSA [r9_794_TrMRF] | 0.874 ± 0.064

Assay: folding stability dG unfold from chymotrypsin proteolysis; higher = more stable
Summary of the method: as §1

Row | Sequence | folding stability dG unfold [kcal/mol]
43 | SAGGKEFIEKLGNNATIEIDTPNGGKVKINLKIEKVKPGKYVIKGEVTVYNPNTNKPVKFPYTLTIESAGGS [r8_473_TrMRF] | 3.75 ± 0.076
44 | SAGGSAGGSAGGSKKIVIRVKDKDGNEREIVLEVPEEELTEEEIAELAKKFPNAEIEVLSAGGSAGGSAGGS [r4_422_TrROS_Hall] | 1.02 ± 0.053
45 | SAGNIQIEPTDGKWRIRITYWMPDPDEITPDTFKNLLRNLGLPIKDIDIEPEPNPNGQRYVTAEIWIPVSAG [r5_922_TrROS] | 3.34 ± 0.071
46 | SAGKVYRIKATAPDGSTAIIEIPENGNAKIKIFYPNGVKEITINLDPNVKIEEILEKFPNFIISSIEEESAG [r5_259_TrMRF] | 3.95 ± 0.22
47 | SAGGSAMERVTITLPDGRELTIERFPEEPNRFVLTFPDGRRLEFEFESPEEGLRAALELVLAGKEGSAGGSA [r15_38_TrMRF] | 4.13 ± 0.042
48 | SAGGVITAVESTTTPLPNGTVLVTLTLKEGGETLQVTVTVSPDGVTVTTPSGKTSTIAPEELASLLPSAGGS [r16_593_JUSTAS] | 1.39 ± 0.025
49 | SAGGSAGGEEEETVTLTLEVEVEAEVKVEKNADGEETEVEVKVKRVRVRLTLTLTKEELEKLLKSAGGSAGG [r6_119_TrROS_Hall] | 4.17 ± 0.15
50 | SDREFEAVFLVETPEEVEALARELALPGVEVEVHVLPAPYLDPETGEPRPFLLAVVRVRVPVPPPGPGALSA [r9_962_TrMRF] | 2.56 ± 0.055
51 | SAGGGTATVTTAEAELPGDVRVTTATVTLPDGSAVRVVTLSSSVPNATATVVVPLPANGPGEGVIVLPSAGG [r13_323_TrMRF] | 0.785 ± 0.056
52 | SAGGSAGGSWMLMVKIEFPENGQERHFMLPPGMTIEDIADRLREDGAPIKDIEVQWMPLPPGDSAGGSAGGS [r12_955_TrROS] | 1.62 ± 0.086
53 | SAGGSAGGSAGGMTLTIPEEVLKKALEEGDEELLKEVVEKAGVKPEDTEVIAVTPEDLLESAGGSAGGSAGG [r7_7_JUSTAS] | 0.919 ± 0.07
54 | SAGGSMTLRLPVPEDVEVVEVTAEVPDPETGKVYVFRSRARVVPYKDGVYLTVDLDPDGRSYGFDPSAGGSA [r2_123_TrMRF] | 0.56 ± 0.12
55 | SDPNGKPKKRRFYVMITVPHKMKPERDPDGKMEMEHKMPTVMFPFPADDLDDLRDILEPFGISVSLMPLDSA [r9_1209_TrROS] | 2.14 ± 0.066
56 | SKTIMIPANMPIDFIRKIARNAAKNGPPVKITIMIPDNPKIKEWLEEAGFPVEIERNKENNMQMITIEVPSA [r9_759_TrROS] | 1.95 ± 0.028
57 | SAGSKVIMIPWEDAEKLIEDLPPGKNVTIHWMWPKGPYWTHTIEVKGDKIKIEPLPPNQFPGWRIMITKSAG [r5_85_TrROS] | 1.45 ± 0.17
58 | SKKIVINLENIPEENREKVLENVLKAIKEAKEKNPEKKVKITILVSPEQKEEVKKLKEELEKAGLEVEEISA [r9_1202_TrROS_Hall] | 2.31 ± 0.089
59 | SAGGSQKLPPGETIPIRIPGFQIEISPDKTTIHVMWPDPDEAKDFLKNLPFPIKIDKVEVMPPEDFSAGGSA [r2_418_TrROS] | 1.01 ± 0.035
60 | KKVKIEIEVIHPGPDGWVIRAKVKYPGNNKKKEKPFFFPNPKEFVKEIANELLPKNQLDDVDIEMYPLEEFS [r1_399_TrROS] | 0.686 ± 0.14
61 | SAGGSAPPPPETVRIRVRITLPDGRTLEIEIEVSREEAERLAKELADRLRELGYEVKVEIVEVEEVSAGGSA [r2_274_TrROS_Hall] | 3.14 ± 0.28
62 | SAGGSAGGSAKKTLTVTVKAEPSEGAPAIAKEVAEKLGLPDAKVLSISYDPETGELTITFEYSAGGSAGGSA [r18_481_TrMRF] | 4.56 ± 0.097
63 | SAGGNKEHKVTLEIYIMMWPDPDNGQPYPMPLEIEAPYKNNDPEAAEADIKELLKEIPIPPWMKDMISAGGS [r16_40_TrROS] | 0.692 ± 0.15
